Experimental data as given in patent US20200079833A1 (AstraZeneca / MedImmune, published 2020).
Starred links: 1 amine or outer side, 2 acyl side, 3 side chain; linkers in the order of their positions; H or OH if unused. Non-standard residues stand in square brackets, D forms with d. Groups on a side chain read outwards from the residue. No end group written: not given here. *: point of attachment. γGlu = O=C(O)[C@H](CCC(=O)[*:2])N[*:1]; Palmitoyl = CCCCCCCCCCCCCCCC(=O)*; αMeF = C[C@](N)(Cc1ccccc1)C(=O)O; αMeK = C[C@](N)(CCCCN)C(=O)O; αMeS = C[C@](N)(CO)C(=O)O; Aib = CC(C)(N)C(=O)O

T1: glucose-dependent insulinotropic peptide (gastric inhibitory polypeptide) receptor (GIPR) (human, UniProt P48546 22-466)
T1 sequence (looked up): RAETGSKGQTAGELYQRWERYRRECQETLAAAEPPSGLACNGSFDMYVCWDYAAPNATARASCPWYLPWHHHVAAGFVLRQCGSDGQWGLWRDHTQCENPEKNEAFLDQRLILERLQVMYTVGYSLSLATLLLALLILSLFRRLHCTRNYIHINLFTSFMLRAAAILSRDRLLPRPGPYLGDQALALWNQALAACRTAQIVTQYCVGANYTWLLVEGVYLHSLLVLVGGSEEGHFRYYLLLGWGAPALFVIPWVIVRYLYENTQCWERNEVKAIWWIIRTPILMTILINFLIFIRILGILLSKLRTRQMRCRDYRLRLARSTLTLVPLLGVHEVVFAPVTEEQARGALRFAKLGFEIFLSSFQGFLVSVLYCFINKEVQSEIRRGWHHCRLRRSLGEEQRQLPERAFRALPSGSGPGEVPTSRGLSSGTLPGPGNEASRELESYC


What was measured:
Assay in all cases: cell-based or functional assay
glucagon receptor (GCGR) = glucagon receptor (GCGR) (human, UniProt P47871 26-477)
[1] = molecular target: T1, glucose-dependent insulinotropic …
GLP-1 receptor (GLP-1R) = GLP-1 receptor (GLP-1R) (human, UniProt P43220 24-463)

Chain of glucagon receptor (GCGR) (P47871 26-477): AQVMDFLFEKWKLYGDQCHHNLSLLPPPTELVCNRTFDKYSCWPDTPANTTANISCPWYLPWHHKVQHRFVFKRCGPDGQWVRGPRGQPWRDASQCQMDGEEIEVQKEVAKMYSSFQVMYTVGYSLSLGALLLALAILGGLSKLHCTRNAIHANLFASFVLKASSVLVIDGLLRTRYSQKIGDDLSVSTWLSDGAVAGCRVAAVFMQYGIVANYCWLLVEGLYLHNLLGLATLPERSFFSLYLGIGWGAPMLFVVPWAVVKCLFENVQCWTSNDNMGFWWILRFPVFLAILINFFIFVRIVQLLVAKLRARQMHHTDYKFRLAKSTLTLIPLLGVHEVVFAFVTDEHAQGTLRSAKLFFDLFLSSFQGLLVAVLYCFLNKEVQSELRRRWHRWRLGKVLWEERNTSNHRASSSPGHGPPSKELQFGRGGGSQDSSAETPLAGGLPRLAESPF

Binder | cAMP Primary assay EC50 Gluc-R (glucagon receptor (GCGR)) [nM] | cAMP Primary assay EC50 Gluc-R (2nd) (glucagon receptor (GCGR)) [nM] | cAMP Primary assay EC50 GIP-R [1] [nM] | cAMP Primary assay EC50 GIP-R (2nd) [1] [nM] | cAMP Mean pM GLP-1R (GLP-1 receptor (GLP-1R)) [pM] | cAMP Primary assay EC50 GLP-1R n1 (GLP-1 receptor (GLP-1R)) [nM] | cAMP Primary assay EC50 GLP-1R n2 (GLP-1 receptor (GLP-1R)) [nM]
H[Aib]EGS[αMeF]TSDV[αMeS]S[αMeF]LEGEAA[αMeK]K([γGlu-Palmitoyl])[αMeF]IA[αMeF]VV[αMeK]GG-NH2 (N-terminus assumed; SMILES CCCCCCCCCCCCCCCC(=O)N[C@@H](CCC(=O)NCCCC[C@H](NC(=O)[C@](C)(CCCCN)NC(=O)[C@H](C)NC(=O)[C@H](C)NC(=O)[C@H](CCC(=O)O)NC(=O)CNC(=O)[C@H](CCC(=O)O)NC(=O)[C@H](CC(C)C)NC(=O)[C@](C)(Cc1ccccc1)NC(=O)[C@H](CO)NC(=O)[C@](C)(CO)NC(=O)[C@@H](NC(=O)[C@H](CC(=O)O)NC(=O)[C@H](CO)NC(=O)[C@@H](NC(=O)[C@](C)(Cc1ccccc1)NC(=O)[C@H](CO)NC(=O)CNC(=O)[C@H](CCC(=O)O)NC(=O)C(C)(C)NC(=O)[C@@H](N)Cc1c[nH]cn1)[C@@H](C)O)C(C)C)C(=O)N[C@@](C)(Cc1ccccc1)C(=O)N[C@H](C(=O)N[C@@H](C)C(=O)N[C@@](C)(Cc1ccccc1)C(=O)N[C@H](C(=O)N[C@H](C(=O)N[C@@](C)(CCCCN)C(=O)NCC(=O)NCC(N)=O)C(C)C)C(C)C)[C@@H](C)CC)C(=O)O) [SEQ ID NO 79] | 28 | 28 | 28 | 28 | 3.1 | 0.0039 | 0.0023
H[Aib]EGS[αMeF]TSDV[αMeS]S[αMeF]LEGEAA[αMeK]EK([γGlu-Palmitoyl])IA[αMeF]VV[αMeK]GG-NH2 (N-terminus assumed; SMILES CCCCCCCCCCCCCCCC(=O)N[C@@H](CCC(=O)NCCCC[C@H](NC(=O)[C@H](CCC(=O)O)NC(=O)[C@](C)(CCCCN)NC(=O)[C@H](C)NC(=O)[C@H](C)NC(=O)[C@H](CCC(=O)O)NC(=O)CNC(=O)[C@H](CCC(=O)O)NC(=O)[C@H](CC(C)C)NC(=O)[C@](C)(Cc1ccccc1)NC(=O)[C@H](CO)NC(=O)[C@](C)(CO)NC(=O)[C@@H](NC(=O)[C@H](CC(=O)O)NC(=O)[C@H](CO)NC(=O)[C@@H](NC(=O)[C@](C)(Cc1ccccc1)NC(=O)[C@H](CO)NC(=O)CNC(=O)[C@H](CCC(=O)O)NC(=O)C(C)(C)NC(=O)[C@@H](N)Cc1c[nH]cn1)[C@@H](C)O)C(C)C)C(=O)N[C@H](C(=O)N[C@@H](C)C(=O)N[C@@](C)(Cc1ccccc1)C(=O)N[C@H](C(=O)N[C@H](C(=O)N[C@@](C)(CCCCN)C(=O)NCC(=O)NCC(N)=O)C(C)C)C(C)C)[C@@H](C)CC)C(=O)O) [SEQ ID NO 78] | 28 | 28 | 28 | 28 | 14 | 0.018 | 0.0093
H[Aib]EGS[αMeF]TSDV[αMeS]S[αMeF]LEGEAAK([γGlu-Palmitoyl])E[αMeF]IA[αMeF]VV[αMeK]GG-NH2 (N-terminus assumed; SMILES CCCCCCCCCCCCCCCC(=O)N[C@@H](CCC(=O)NCCCC[C@H](NC(=O)[C@H](C)NC(=O)[C@H](C)NC(=O)[C@H](CCC(=O)O)NC(=O)CNC(=O)[C@H](CCC(=O)O)NC(=O)[C@H](CC(C)C)NC(=O)[C@](C)(Cc1ccccc1)NC(=O)[C@H](CO)NC(=O)[C@](C)(CO)NC(=O)[C@@H](NC(=O)[C@H](CC(=O)O)NC(=O)[C@H](CO)NC(=O)[C@@H](NC(=O)[C@](C)(Cc1ccccc1)NC(=O)[C@H](CO)NC(=O)CNC(=O)[C@H](CCC(=O)O)NC(=O)C(C)(C)NC(=O)[C@@H](N)Cc1c[nH]cn1)[C@@H](C)O)C(C)C)C(=O)N[C@@H](CCC(=O)O)C(=O)N[C@@](C)(Cc1ccccc1)C(=O)N[C@H](C(=O)N[C@@H](C)C(=O)N[C@@](C)(Cc1ccccc1)C(=O)N[C@H](C(=O)N[C@H](C(=O)N[C@@](C)(CCCCN)C(=O)NCC(=O)NCC(N)=O)C(C)C)C(C)C)[C@@H](C)CC)C(=O)O) [SEQ ID NO 80] | 28 | 28 | 28 | 28 | 24 | 0.031 | 0.017

The remaining lines, values ahead:

cAMP Primary assay EC50 Gluc-R (glucagon receptor (GCGR)) [nM] | cAMP Primary assay EC50 Gluc-R (2nd) (glucagon receptor (GCGR)) [nM] | cAMP Primary assay EC50 GIP-R [1] [nM] | cAMP Primary assay EC50 GIP-R (2nd) [1] [nM] | cAMP Mean pM GLP-1R (GLP-1 receptor (GLP-1R)) [pM] | cAMP Primary assay EC50 GLP-1R n1 (GLP-1 receptor (GLP-1R)) [nM] | cAMP Primary assay EC50 GLP-1R n2 (GLP-1 receptor (GLP-1R)) [nM] | Binder
27 | 27 | 27 | 27 | 2.5 | 0.003 | 0.002 | H[Aib]EGS[αMeF]TSDV[αMeS]S[αMeF]LEGEK([γGlu-Palmitoyl])A[αMeK]E[αMeF]IA[αMeF]VV[αMeK]GG-NH2 (N-terminus assumed; SMILES CCCCCCCCCCCCCCCC(=O)N[C@@H](CCC(=O)NCCCC[C@H](NC(=O)[C@H](CCC(=O)O)NC(=O)CNC(=O)[C@H](CCC(=O)O)NC(=O)[C@H](CC(C)C)NC(=O)[C@](C)(Cc1ccccc1)NC(=O)[C@H](CO)NC(=O)[C@](C)(CO)NC(=O)[C@@H](NC(=O)[C@H](CC(=O)O)NC(=O)[C@H](CO)NC(=O)[C@@H](NC(=O)[C@](C)(Cc1ccccc1)NC(=O)[C@H](CO)NC(=O)CNC(=O)[C@H](CCC(=O)O)NC(=O)C(C)(C)NC(=O)[C@@H](N)Cc1c[nH]cn1)[C@@H](C)O)C(C)C)C(=O)N[C@@H](C)C(=O)N[C@@](C)(CCCCN)C(=O)N[C@@H](CCC(=O)O)C(=O)N[C@@](C)(Cc1ccccc1)C(=O)N[C@H](C(=O)N[C@@H](C)C(=O)N[C@@](C)(Cc1ccccc1)C(=O)N[C@H](C(=O)N[C@H](C(=O)N[C@@](C)(CCCCN)C(=O)NCC(=O)NCC(N)=O)C(C)C)C(C)C)[C@@H](C)CC)C(=O)O) [SEQ ID NO 82]
27 | 27 | 27 | 27 | 283 | 0.37 | 0.2 | H[Aib]EGS[αMeF]TSDV[αMeS]S[αMeF]LEGEAK([γGlu-Palmitoyl])[αMeK]E[αMeF]IA[αMeF]VV[αMeK]GG-NH2 (N-terminus assumed; SMILES CCCCCCCCCCCCCCCC(=O)N[C@@H](CCC(=O)NCCCC[C@H](NC(=O)[C@H](C)NC(=O)[C@H](CCC(=O)O)NC(=O)CNC(=O)[C@H](CCC(=O)O)NC(=O)[C@H](CC(C)C)NC(=O)[C@](C)(Cc1ccccc1)NC(=O)[C@H](CO)NC(=O)[C@](C)(CO)NC(=O)[C@@H](NC(=O)[C@H](CC(=O)O)NC(=O)[C@H](CO)NC(=O)[C@@H](NC(=O)[C@](C)(Cc1ccccc1)NC(=O)[C@H](CO)NC(=O)CNC(=O)[C@H](CCC(=O)O)NC(=O)C(C)(C)NC(=O)[C@@H](N)Cc1c[nH]cn1)[C@@H](C)O)C(C)C)C(=O)N[C@@](C)(CCCCN)C(=O)N[C@@H](CCC(=O)O)C(=O)N[C@@](C)(Cc1ccccc1)C(=O)N[C@H](C(=O)N[C@@H](C)C(=O)N[C@@](C)(Cc1ccccc1)C(=O)N[C@H](C(=O)N[C@H](C(=O)N[C@@](C)(CCCCN)C(=O)NCC(=O)NCC(N)=O)C(C)C)C(C)C)[C@@H](C)CC)C(=O)O) [SEQ ID NO 81]
